Results: the nanobody polyreactivity screen of Harvey et al. (2022)

Assay: yeast display, Sf9 membrane polyspecificity reagent, FACS + sequencing; frameworks hold sequencing errors
In short: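 Nanobodies from a synthetic yeast display library (Saccharomyces cerevisiae BJ5465), induced 36–48 hours with galactose, were stained 1 hour at 4 °C with 10% biotinylated, detergent-solubilized Sf9 membrane reagent, enriched on streptavidin microbeads, then FACS-sorted. Anti-HA (expression) and streptavidin (reagent binding) fluorescence set low and high (top ~1%) gates. Polyreactivity labels come from the gate of origin. Genes were colony-PCR amplified, MiSeq 2 × 250 sequenced and filtered by CDR length.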
In the case of “QVQLVESGGGLVQAGGSLRLSCAASGSTFYRNAMGWYRQAPGKERELVATITFNGGSTYYADSVKGRFTISRDNAKNTVYLQMNSLKPEDTAVYYCNTDWRGDPELYDYWGQGTQVTVSS”, the “polyreactivity (PSR sort gate)” value is reported as “low polyreactivity”. For “QVQLVESGGGLVQAGGSLRLSCAASGSTFYRNAMGWYRQAPGKERELVAVITERGGNTYYADSVKGRFTISRDNAKNTVYLQMNSLKPEDTAVYYCNKQGFVDRGRYRYYWGQGTQVTVSS”, the “polyreactivity (PSR sort gate)” value was “high polyreactivity”. For “QVQLVESGGGLVQAGGSLRLSCAASGSTFYRYAMGGYRPAPGKEREFVAAISGSGGSTRYADSVKGRFTISRDNAKNTVYLQMNSLKPEDTAVYYCAARSRYGYITFDYWGQGTQVTVSS”, the “polyreactivity (PSR sort gate)” value was “high polyreactivity”. With “QVQLVESGGGLVQAGGSLRLSCAASGSTFYRYAMGWYRPAPGKERELVAAITSAGSTNYADSVKGRFTISRDNAKNTVYLQMNSLKPEDTAVYYCAKDLTRWGYNEYDYWGQGSQVTVSS” the “polyreactivity (PSR sort gate)” value was “low polyreactivity”. For “QVQLVESGGGLVQAGGSLRLSCAASGSTFYRYAMGWYRQAPGKEREFVAAISGSGGSTRYADSVKGRFTISRDNAKNTVYLQMNSLKPEDTAVYYCAARSRDGYITFDYWGQGTQVTVSS”, the “polyreactivity (PSR sort gate)” value was “high polyreactivity”. With “QVQLVESGGGLVQAGGSLRLSCAASGSTFYRYAMGWYRQAPGKERELVAAISSDGTTYYADSVKGRFTISRDNAKNTVYLQMNCLNPVDTAVYYCAKERSRYYPYDYWGQGTQVTVSS” the “polyreactivity (PSR sort gate)” value was “high polyreactivity”. For “QVQLVESGGGLVQAGGSLRLSCAASGSTFYRYAMGWYRQAPGKERELVAAISSGGRTYYADSVKGRFTISRDNAKNTVYLQMNSLKPEDTAVYYCATSWTFRQGYNYWGQGTQVTVSS”, the “polyreactivity (PSR sort gate)” value was “high polyreactivity”. For “QVQLVESGGGLVQAGGSLRLSCAASGSTFYRYAMGWYRQAPGKERELVAAISSSGGSTYYADSVKGRFTISRDNAKNTVYLQMNSLKPEDTAVYYCNADVHSQYDYWGQGTQVTVSS”, the “polyreactivity (PSR sort gate)” value was “low polyreactivity”. For “QVQLVESGGGLVQAGGSLRLSCAASGSTFYRYAMGWYRQAPGKERELVAAISTRSGSTYYADSVKGRFTISRDNAKNTVYLQMNSLKPEDTAVYYCAADGHKKTARKYYYWGQGTEVTVSS”, the “polyreactivity (PSR sort gate)” value was “low polyreactivity”. For “QVQLVESGGGLVQAGGSLRLSCAASGSTFYRYAMGWYRQAPGKERELVAAISWDGGRTYYADSVKGRFTISRDNAKNTVYLQMNSLKPEDTAVYYCNARSSQYLGRYDYWGQGTQVTVSS”, the “polyreactivity (PSR sort gate)” value was “high polyreactivity”. With “QVQLVESGGGLVQAGGSLRLSCAASGSTFYRYAMGWYRQAPGKERELVARIRLSGTSTYYADSVKGRFTISRDNAKNTVYLQMNSLKPEDTAVYYCAAELYSRNWRSQYDYWGQGSQVTVSS” the “polyreactivity (PSR sort gate)” value was “high polyreactivity”. With “QVQLVESGGGLVQAGGSLRLSCAASGSTFYRYAMGWYRQAPGKERELVATIRSSGDSTNYADSVKGRFTISRDNAKNTVYLQMNSLKPEDTAVYYCAKYGKYTWRQGGYWGQGTQVTVSS” the “polyreactivity (PSR sort gate)” value was “high polyreactivity”. In the case of “QVQLVESGGGLVQAGGSLRLSCAASGSTFYRYAMGWYRQAPGKETELVAAITWRGGSTYYADSVKGRFTISRDNAKNTVYLQMNSLKPEDTAVYYCAAAKYRRGTRYYYWGQCTQVTVSS”, the “polyreactivity (PSR sort gate)” value is reported as “high polyreactivity”. In the case of “QVQLVESGGGLVQAGGSLRLSCAASGSTFYRYPMGWYRQAPGKEREFVAAISGSGGSTRYADSVKGRFTISRDNAKKTVYLQMNSLKPEDTAVYYCAARSRYGYITFDYWGQGTQVTVSS”, the “polyreactivity (PSR sort gate)” value is reported as “high polyreactivity”. With “QVQLVESGGGLVQAGGSLRLSCAASGSTFYSNAMGWYRQAPGKERELVAGISGSGGSTYYADSVKGRFTISRDNAKNTVYLQMNSLKPEDTAVYYCNARKTRSYFRFDSWGQGTQVTVSS” the “polyreactivity (PSR sort gate)” value was “low polyreactivity”. With “QVQLVESGGGLVQAGGSLRLSCAASGSTFYSNVMGWYRQAPGKERELVAAISRSGGSTYYADSVKGRFTISRDNAKNTVYLQMNSLKPEDTAVYYCAAEREVGDAYDYWGQGTQVTVSS” the “polyreactivity (PSR sort gate)” value was “high polyreactivity”. In the case of “QVQLVESGGGLVQAGGSLRLSCAASGSTFYSYAMGWYRQAPGKDRELVAAISSSSGTTYYADSVKGRFSISRDNAKTTVYLQMNSLKPEDTAVYYCNRGRRYSHKYDYWGQGTQVTVSS”, the “polyreactivity (PSR sort gate)” value is reported as “high polyreactivity”. In the case of “QVQLVESGGGLVQAGGSLRLSCAASGSTFYSYAMGWYRQAPGKEREFVAAIRYSGGRTYADSVKGRFTISRDNAKNTVYLQMNSLKPEDTAVYYCAAVYYSYRWPYDYWGQGTQVTVSS”, the “polyreactivity (PSR sort gate)” value is reported as “high polyreactivity”. For “QVQLVESGGGLVQAGGSLRLSCAASGSTFYSYAMGWYRQAPGKERELVAAITSGGSTNYADSVKGRFTISRDNAKNTVYLQMNSLKPEDTAVYYCARKYWHRSYGYDYWGQGTQVTVSS”, the “polyreactivity (PSR sort gate)” value was “low polyreactivity”. With “QVQLVESGGGLVQAGGSLRLSCAASGSTFYSYAMGWYRQAPGTERELVAAITSRGDRTYYADSVKGRFTISRDNAKNTVYLQMNSLKPEDTAVYYCAAEQSWQGYAYYYWGQGTQVTVSS” the “polyreactivity (PSR sort gate)” value was “high polyreactivity”. For “QVQLVESGGGLVQAGGSLRLSCAASGSTFYSYVMGWYRQAPGKERELVAAITYSGGRTYYADSVKGRFTISRDNAKNTVYLQMNSLKPEDTAVYYCAKRVFNYQRYDYWGQGTQVTVSS”, the “polyreactivity (PSR sort gate)” value was “high polyreactivity”. For “QVQLVESGGGLVQAGGSLRLSCAASGSTFYTNAMGWYRQAPGKEREFVAAISWSGSSTYADSVKGRFTISRDNAKNTVYLQMNSLKPEDTAVYYCAADWFKLRTDYYWGQGTQVTVSS”, the “polyreactivity (PSR sort gate)” value was “low polyreactivity”. With “QVQLVESGGGLVQAGGSLRLSCAASGSTFYTNAMGWYRQAPGKERELVAAISASVGSTYYADSVKGRFTISRDNAKNTVYLQMNSLKPEDTAVYYCAADRGFYYEYDYWGQGTQVTVSS” the “polyreactivity (PSR sort gate)” value was “low polyreactivity”. In the case of “QVQLVESGGGLVQAGGSLRLSCAASGSTFYTNAMGWYRQAPGKERELVAAISASVGSTYYADSVKGRFTISRDNAKNTVYLQMNSLKPEDTAVYYCAAQYTYLLFASLPDYDYWGQGTQVTVSS”, the “polyreactivity (PSR sort gate)” value is reported as “low polyreactivity”. With “QVQLVESGGGLVQAGGSLRLSCAASGSTFYTNAMGWYRQAPGKERELVAAISGSGGSTNYADSVKGRFTISRDNAKNTVYLQMISLKPEDTAVYYGAADGSNYSGSVAAFPYRVDYWGQGTQVNVSS” the “polyreactivity (PSR sort gate)” value was “low polyreactivity”. With “QVQLVESGGGLVQAGGSLRLSCAASGSTFYTNAMGWYRQAPGKERELVAAISGSGGSTYYADSVKGRFTISRDNAMNTVYLQMNSLKPEDTAVYYCADRSRYYDTRFDYWGQGTQVTVSS” the “polyreactivity (PSR sort gate)” value was “low polyreactivity”. With “QVQLVESGGGLVQAGGSLRLSCAASGSTFYTNAMGWYRQAPGKERELVAAISNAGSTYYADSVKGRFTISRDNAKNTVYLQMNSLKPEDTAVYYCAADPIGLSSLWFRYSVSDVDYWGQGTQVTVSS” the “polyreactivity (PSR sort gate)” value was “low polyreactivity”. In the case of “QVQLVESGGGLVQAGGSLRLSCAASGSTFYTYAMGWYRQAPGKERELVAAIRGRGGRTYYADSVKGRFTISRDNAKNTVYLQMNSLKPEDTSVYYCNADGYAYYRATTRFDYWGQGTQVTVSS”, the “polyreactivity (PSR sort gate)” value is reported as “high polyreactivity”. For “QVQLVESGGGLVQAGGSLRLSCAASGSTFYTYAMGWYRQAPGKERELVAAISADGGRTYYADSVKGRFTISRDNAKNTVYLQMNSLKPEDTAVYYCAAEERRWSSYRYYYWGQGTQVTVSS”, the “polyreactivity (PSR sort gate)” value was “high polyreactivity”. For “QVQLVESGGGLVQAGGSLRLSCAASGSTFYTYTMGWYRQAPGKERELVAAITWSGGSTYYADSVKGRFTISRDNAKNTVYLQMNSLKPEDTAVYYCNADQDYQGARPSGMDYWGQGTQVTVSS”, the “polyreactivity (PSR sort gate)” value was “low polyreactivity”. For “QVQLVESGGGLVQAGGSLRLSCAASGSTFYVNAMGCYKQAPGKEWELVAAIDGCDTYYADSVKGRFTISRDNAKKTVNLQMNSLKPDDTEVYYCAAESLPEISVGLGYWGQGTQVTVSS”, the “polyreactivity (PSR sort gate)” value was “low polyreactivity”. In the case of “QVQLVESGGGLVQAGGSLRLSCAASGSTFYVNAMGWNRQAPGKEREFVAAISWSGGSTYYADSVKGRFTISRDNAKNTVYLQMNSLKPEDTAVYYCAADRVRKDGVLFDYWGQGTQVTVSS”, the “polyreactivity (PSR sort gate)” value is reported as “high polyreactivity”. With “QVQLVESGGGLVQAGGSLRLSCAASGSTFYVNAMGWYRQAPGKERELVAAIRSSAGNTTYADSVKGRFTISRDNAKNTVYLQMNSLKPEDTAVYYCAAETFYDYGGYDYWGQGTQVTVSS” the “polyreactivity (PSR sort gate)” value was “low polyreactivity”. In the case of “QVQLVESGGGLVQAGGSLRLSCAASGSTFYVNTMGWYRQAPGKERELVAVISRTGTSTYYADSVKGRFTISRDNAKNTVYFQMNCLKPEDTAVYYCAKRPLPGRPNRSILQYYYWGQVTQVTVSS”, the “polyreactivity (PSR sort gate)” value is reported as “high polyreactivity”. In the case of “QVQLVESGGGLVQAGGSLRLSCAASGSTFYVYAMGWYRQAPGKERELGAAIDSGDSTNYADSVKGRVTISRDNAKNTVYLQMNSLKPEDTAVYYCAVGYWDSRYRYDWPNSDYWGQGTQVTVSS”, the “polyreactivity (PSR sort gate)” value is reported as “low polyreactivity”. For “QVQLVESGGGLVQAGGSLRLSCAASGSTFYVYAMGWYRQAPGKERELVAAIDGSTGSTYYADSVKGRFTISRDNAKNTVYLQMNSLKPEDTAVYYCNAESIPPYSITKFDYWGQGTQGTVSS”, the “polyreactivity (PSR sort gate)” value was “low polyreactivity”. In the case of “QVQLVESGGGLVQAGGSLRLSCAASGSTFYVYAMGWYRQAPGKERELVAAITRGGSTYYADSVKGRFTISRDNAKNTVYLQMNSLKPEDTAVYYCAKYLSGAADLVPEYDYWGQGTQVTVSS”, the “polyreactivity (PSR sort gate)” value is reported as “low polyreactivity”. In the case of “QVQLVESGGGLVQAGGSLRLSCAASGSTFYVYAMGWYRQAPGNERELVAAITSGGSTNYADSVKGRFTISRDNAKNTVYLQMNSLKPEDTAVYYCAAQGRVWDSYGYEYVQEVTRDYWGQGTQVTVSS”, the “polyreactivity (PSR sort gate)” value is reported as “low polyreactivity”. For “QVQLVESGGGLVQAGGSLRLSCAASGSTFYWNAMGWYRQAPGKERELVAAIRRSSDRTYYADSVKGRFTISRDNAKNTVYLQMNSLKPEDTAVYYCAADAYYTYRLDYWGQGTQVTVSS”, the “polyreactivity (PSR sort gate)” value was “high polyreactivity”. For “QVQLVESGGGLVQAGGSLRLSCAASGSTFYWYAMGGYRQAPGKERELVAAISGSGGRTYYADSVKGRFTISRDNAKNTVYLQMYSLKPEDTAGYYCAADTKFYNYYYWGQGTQVTVSS”, the “polyreactivity (PSR sort gate)” value was “high polyreactivity”. In the case of “QVQLVESGGGLVQAGGSLRLSCAASGSTFYWYAMGWYIQAPGKERELGAAIRWSGDRTYYADSVKGLFTISRDNAKNTVYLQMNSLKPEDTAVYYCAAGKGRPVGGRAYYYWGQGTQVTVSS”, the “polyreactivity (PSR sort gate)” value is reported as “high polyreactivity”. In the case of “QVQLVESGGGLVQAGGSLRLSCAASGSTFYWYAMGWYRQAPGKERELVAAISRSSGSTYYADSVKGRFTISRDNAKNSVYLQMNSLKPEDTAVYYCAADYYLRSFVWTAYDSWGQGTQVTVSS”, the “polyreactivity (PSR sort gate)” value is reported as “high polyreactivity”. With “QVQLVESGGGLVQAGGSLRLSCAASGSTFYWYAMGWYRQAPGKERELVAAITYSSGRTYYADSVKGRFTISRDNAKNTVYLQMNSLKPEDTAVYYCGWSALNGYDYWGQGTQVTVSS” the “polyreactivity (PSR sort gate)” value was “high polyreactivity”.
